This passage reports koff, Kd and kon results from patent US20110054149A1 (published 2011).

Test [1] concerns the target T1, GST-human NOGO-A56 (human, UniProt Q9NQC3 586-785).
T1 construct: also called hNOGO; recombinant human NOGO; not shown: Glutathione S-transferase (GST) tag encoded by vector pGEX-6P1, N-terminal to the NOGO-A fragment; the tag and linker se
T1 sequence: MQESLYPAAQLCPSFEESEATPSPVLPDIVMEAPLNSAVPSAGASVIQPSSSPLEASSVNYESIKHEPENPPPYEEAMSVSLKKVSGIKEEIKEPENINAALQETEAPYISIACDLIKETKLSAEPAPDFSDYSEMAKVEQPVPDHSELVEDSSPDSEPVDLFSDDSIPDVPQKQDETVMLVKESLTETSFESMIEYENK
Nature of the test: SPR off-rate ranking (Biacore), CHO-K1 transfection supernatant over GST-human NOGO-A56 chip; single experiment. The method, then:
(§1) hNOGO (GST-human NOGO-A56) was immobilised to a CM5 chip by primary amine coupling using the Biacore Wizard program designed for targeted immobilisation levels. The CM5 sensor surface was activated by passing a solution of 50 mM N-hydroxy-succinimide (NHS) and 200 mM N-ethyl-N′-dimethylaminopropyl […] (EDC). Then hNOGO in sodium acetate buffer, pH5.0 or pH 4.5, was passed over the chip and immobilised. After immobilisation was complete any still activated esters were blocked by an injection of 1M ethanolamine hydrochloride, pH8.5.
The hNOGO chip was prepared as for kinetic analysis. Cell supernatants where taken directly from transient transfections of CHO—K1 cells. These were passed directly over the sensor surface and the interaction measured. A mock transfected cell supernatant was used for double referencing to remove any artefacts due to the tissue culture media. All runs were referenced against a blanked sensor surface (one that had been activated and blocked as described earlier but had no addition of ligand). Analysis of binding was carried out using the BIAevaluation kinetic analysis software version 4.1.
(In general: SPR reads the build-up and loss of mass on a sensor chip optically.)

Test [2] concerns the target T1, GST-human NOGO-A56. The test can be described thus: SPR (Biacore 3000), GST-human NOGO-A56 on CM5 chip, antibody as analyte; single experiment. The method, then: (§2) The binding kinetics of the anti-NOGO monoclonal antibody (mAb) to recombinantly expressed human NOGO-A (GST-human NOGO-A56) was analysed using the Biacore3000 biosensor. The hNOGO-A chip was prepared as follows:
as §1
(§3) The anti-NOGO mAbs were diluted down in HBS-EP (10 mM HEPES, pH 7.4, 150 mM NaCl, 3 mM EDTA, and 0.005% P-20 surfactant) and binding studies were carried out at range of defined antibody concentrations. All runs were referenced against a blanked sensor surface (one that had been activated and blocked as described earlier but had no addition of ligand). Analysis of binding was carried out using the BIAevaluation kinetic analysis software version 4.1. Biacore analysis of other antibodies of the invention essentially followed the same protocol as described herein.

Test [3] deals with T1, GST-human NOGO-A56. The test can be described thus: SPR (Biacore 3000), GST-human NOGO-A56 amine-coupled to CM5 chip, antibody as analyte; mean (SD) of four experiments. The method, then:
as §2, §1, §3

Broadly, the koff is the rate constant with which the complex falls apart. The low end stands for slow dissociation, the high end for fast dissociation. As usually defined, the Kd is the constant that tells how readily two partners part at equilibrium. One may read the kon as a measure of how fast the partners come together. A higher kon goes with faster complex formation.

B1: H14L13 (antibody, human IgG1, kappa, V domains shown)
VH: QVQLVQSGAEVVKPGASVKLSCKASGYTFTSYWMHWVKQAPGQGLEWIGNINPSNGGTNYNEKFKSRATLTRDTSTSTAYMELSSLRSEDTAVYYCELGQGYWGQGTLVTVSS
VL: DIVMTQSPLSLPVTLGQPASISCRSSKSLLYKDGKTYLNWFQQRPGQSPQLLIYLMSTRASGVPDRFSGGGSGTDFTLKISRVEAEDVGVYYCQQLVEYPLTFGQGTKLEIKR
notes: Humanised 2A10; tested as CHO-K1 transfection supernatant; Human gamma-1 mutated constant region, human kappa
The molecule B1 displayed a koff in test [1] of 0.0138 s⁻¹.

B2: H10L13 (antibody, V domains shown)
VH: QVQLVQSGAEVKKPGASVKLSCKASGYTFTSYWMHWVKQAPGQGLEWIGNINPSNGGTNYNEKFKSRATLTVDKSTSTAYMELSSLRSEDTAVYYCELGQGYWGQGTLVTVSS
VL: DIVMTQSPLSLPVTLGQPASISCRSSKSLLYKDGKTYLNWFQQRPGQSPQLLIYLMSTRASGVPDRFSGGGSGTDFTLKISRVEAEDVGVYYCQQLVEYPLTFGQGTKLEIK
For B2, in test [2], the Kd amounted to 12.9 nM, the koff turned out to be 0.0212 s⁻¹ and the kon amounted to 1.64e+06 M⁻¹ s⁻¹.

B3: HcL13 (antibody, human IgG1, kappa)
heavy: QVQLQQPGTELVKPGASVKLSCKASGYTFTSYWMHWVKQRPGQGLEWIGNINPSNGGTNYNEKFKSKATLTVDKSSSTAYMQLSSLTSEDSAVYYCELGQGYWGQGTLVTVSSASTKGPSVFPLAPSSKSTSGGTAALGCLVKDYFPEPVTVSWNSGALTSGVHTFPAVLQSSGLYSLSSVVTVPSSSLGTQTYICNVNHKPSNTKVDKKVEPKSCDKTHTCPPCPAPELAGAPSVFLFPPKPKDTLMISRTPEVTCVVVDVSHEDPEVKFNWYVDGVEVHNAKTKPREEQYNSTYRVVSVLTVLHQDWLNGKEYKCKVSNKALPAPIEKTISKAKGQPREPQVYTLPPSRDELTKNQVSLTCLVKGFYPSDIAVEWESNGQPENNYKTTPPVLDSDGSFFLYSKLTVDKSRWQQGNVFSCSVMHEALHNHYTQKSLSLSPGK
light: DIVMTQSPLSLPVTLGQPASISCRSSKSLLYKDGKTYLNWFQQRPGQSPQLLIYLMSTRASGVPDRFSGGGSGTDFTLKISRVEAEDVGVYYCQQLVEYPLTFGQGTKLEIKRTVAAPSVFIFPPSDEQLKSGTASVVCLLNNFYPREAKVQWKVDNALQSGNSQESVTEQDSKDSTYSLSSTLTLSKADYEKHKVYACEVTHQGLSSPVTKSFNRGEC
notes: Chimeric heavy chain Hc paired with humanised light chain L13
In test [2], B3 had a Kd of 1.98 nM, a koff of 0.00938 s⁻¹ and an on-rate (kon) of 4.8e+06 M⁻¹ s⁻¹.

B4: H6L15 (antibody, human IgG1, kappa, V domains shown)
VH: QVQLVQSGAEVKKPGASVKVSCKASGYTFTSYWMHWVRQAPGQGLEWIGNINPSNGGTNYNEKFKSRATMTRDTSTSTAYMELSSLRSEDTAVYYCELGQGYWGQGTLVTVSS
VL: DIVMTQSPLSLPVTLGQPASISCRSSKSLLYKDGKTYLNWFLQRPGQSPQLLIYLMSTRASGVSDRFSGGGSGTDFTLKISRVEAEDVGVYYCQQLVEYPLTFGQGTKLEIKR
notes: as for B1
As to B4, the koff in test [1] worked out at 0.0211 s⁻¹.

B5: H6L17 (antibody, human IgG1, kappa, V domains shown)
VH: QVQLVQSGAEVKKPGASVKVSCKASGYTFTSYWMHWVRQAPGQGLEWIGNINPSNGGTNYNEKFKSRATMTRDTSTSTAYMELSSLRSEDTAVYYCELGQGYWGQGTLVTVSS
VL: DIVMTQDPLSLPVTLGQPASISCRSSKSLLYKDGKTYLNWFQQRPGQSPQLLIYLMSTRASGVSDRFSGSGSGTDFTLKISRVEAEDVGVYYCQQLVEYPLTFGQGTKLEIKR
notes: as for B1
The molecule B5 registered a koff in test [1] of 0.0158 s⁻¹.

B6: H15L18 (antibody, human IgG1, kappa, V domains shown)
VH: QVQLVQSGAEVVKPGASVKLSCKASGYTFTSYWMHWVKQRPGQGLEWIGNINPSNGGTNYNEKFKSKATLTVDTSSSTAYMELSSLRSEDSAVYYCELGQGYWGQGTLVTVSS
VL: DIVMTQDPLSNPVTLGQPVSISCRSSKSLLYKDGKTYLNWFLQRPGQSPQLLIYLMSTRASGVSDRFSGSGSGTDFTLKISRVEAEDVGVYYCQQLVEYPLTFGQGTKLEIKR
notes: as for B1
In test [1], B6 showed a koff of 0.00594 s⁻¹.

B7: H6L16 (antibody, human IgG1, kappa)
heavy: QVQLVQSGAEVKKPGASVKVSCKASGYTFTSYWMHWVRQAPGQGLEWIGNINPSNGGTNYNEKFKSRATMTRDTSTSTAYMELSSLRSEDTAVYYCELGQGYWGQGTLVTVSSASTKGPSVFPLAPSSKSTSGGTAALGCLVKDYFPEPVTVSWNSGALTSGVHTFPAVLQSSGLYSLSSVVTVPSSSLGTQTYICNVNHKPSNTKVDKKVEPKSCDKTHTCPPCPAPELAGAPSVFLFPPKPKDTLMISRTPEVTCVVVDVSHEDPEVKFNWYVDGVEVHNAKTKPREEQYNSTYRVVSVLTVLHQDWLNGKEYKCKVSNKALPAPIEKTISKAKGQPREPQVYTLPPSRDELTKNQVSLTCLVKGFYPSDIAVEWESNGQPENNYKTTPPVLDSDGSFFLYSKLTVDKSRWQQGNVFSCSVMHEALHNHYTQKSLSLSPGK
light: DIVMTQSPLSNPVTLGQPVSISCRSSKSLLYKDGKTYLNWFLQRPGQSPQLLIYLMSTRASGVPDRFSGGGSGTDFTLKISRVEAEDVGVYYCQQLVEYPLTFGQGTKLEIKRTVAAPSVFIFPPSDEQLKSGTASVVCLLNNFYPREAKVQWKVDNALQSGNSQESVTEQDSKDSTYSLSSTLTLSKADYEKHKVYACEVTHQGLSSPVTKSFNRGEC
notes: as for B1
Molecule B7 displayed a koff in test [1] of 0.0114 s⁻¹.

B8: H5L6 (antibody, human IgG1, kappa, V domains shown)
VH: QVQLVQSGAEVKKPGASVKVSCKASGYTFTSYWMHWVRQAPGQGLEWMGNINPSNGGTNYNEKFKSRVTMTRDTSTSTAYMELSSLRSEDTAVYYCELGQGYWGQGTLVTVSS
VL: DIVMTQSPLSLPVTPGEPASISCRSSKSLLYKDGKTYLNWFLQRPGQSPQLLIYLMSTRASGVPDRFSGSGSGTDFTLKISRVEAEDVGVYYCQQLVEYPLTFGGGTKVEIKR
notes: Humanised 2A10; human gamma-1 mutated constant region, human kappa
In test [2], B8 came in with a Kd of 30.3 nM, a koff of 0.047 s⁻¹ and a kon of 1.5e+06 M⁻¹ s⁻¹.

B9: H6L6 (antibody, human IgG1, kappa, V domains shown)
VH: QVQLVQSGAEVKKPGASVKVSCKASGYTFTSYWMHWVRQAPGQGLEWIGNINPSNGGTNYNEKFKSRATMTRDTSTSTAYMELSSLRSEDTAVYYCELGQGYWGQGTLVTVSS
VL: DIVMTQSPLSLPVTPGEPASISCRSSKSLLYKDGKTYLNWFLQRPGQSPQLLIYLMSTRASGVPDRFSGSGSGTDFTLKISRVEAEDVGVYYCQQLVEYPLTFGGGTKVEIKR
notes: as for B8
As to B9, in test [2], binding was characterised by a dissociation constant (Kd) of 21.4 nM, the koff is 0.0254 s⁻¹ and the kon amounted to 1.2e+06 M⁻¹ s⁻¹.

B10: H15L13 (antibody, human IgG1, kappa, V domains shown)
VH: QVQLVQSGAEVVKPGASVKLSCKASGYTFTSYWMHWVKQRPGQGLEWIGNINPSNGGTNYNEKFKSKATLTVDTSSSTAYMELSSLRSEDSAVYYCELGQGYWGQGTLVTVSS
VL: DIVMTQSPLSLPVTLGQPASISCRSSKSLLYKDGKTYLNWFQQRPGQSPQLLIYLMSTRASGVPDRFSGGGSGTDFTLKISRVEAEDVGVYYCQQLVEYPLTFGQGTKLEIKR
notes: as for B1
B10 came in with a koff in test [1] of 0.00965 s⁻¹.

B11: H700L11 (antibody, human IgG1, kappa, V domains shown)
VH: QVQLVQSGAEVKKPGASVKVSCKASGYTFTSYWMHWVRQAPGQGLEWIGNINPSNGGTNYNEKFKSRATLTVDKSTSTAYMELSSLRSEDTAVYYCELGQGYWGQGTLVTVSS
VL: DIVITQSPLSLPVTLGQPASISCRSSKSLLYKDGKTYLNWFQQRPGQSPQLLIYLMSTRASGVPDRFSGGGSGTDFTLKISRVEAEDVGVYYCQQLVEYPLTFGQGTKLEIKR
notes: as for B8
Turning to B11, in test [2], the dissociation constant Kd came to 19.4 nM, the koff came out at 0.0233 s⁻¹ and the kon is 1.19e+06 M⁻¹ s⁻¹.

B12: H17L16 (antibody, human IgG1, kappa)
heavy: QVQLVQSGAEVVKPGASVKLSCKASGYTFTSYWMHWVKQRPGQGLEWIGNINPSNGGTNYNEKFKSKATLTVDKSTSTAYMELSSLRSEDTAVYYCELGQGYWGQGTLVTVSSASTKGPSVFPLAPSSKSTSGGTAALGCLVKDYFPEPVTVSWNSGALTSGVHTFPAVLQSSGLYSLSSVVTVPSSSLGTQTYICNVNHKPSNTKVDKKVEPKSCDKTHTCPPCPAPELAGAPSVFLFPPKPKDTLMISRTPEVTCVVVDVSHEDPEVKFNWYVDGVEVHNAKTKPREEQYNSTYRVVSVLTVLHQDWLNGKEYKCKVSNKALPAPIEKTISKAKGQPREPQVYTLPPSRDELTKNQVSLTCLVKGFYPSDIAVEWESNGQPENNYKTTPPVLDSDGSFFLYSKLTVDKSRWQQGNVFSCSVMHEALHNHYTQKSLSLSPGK
light: DIVMTQSPLSNPVTLGQPVSISCRSSKSLLYKDGKTYLNWFLQRPGQSPQLLIYLMSTRASGVPDRFSGGGSGTDFTLKISRVEAEDVGVYYCQQLVEYPLTFGQGTKLEIKRTVAAPSVFIFPPSDEQLKSGTASVVCLLNNFYPREAKVQWKVDNALQSGNSQESVTEQDSKDSTYSLSSTLTLSKADYEKHKVYACEVTHQGLSSPVTKSFNRGEC
notes: as for B8
In test [3], B12 returned a Kd of 1.82 nM, a koff of 0.0061 s⁻¹ and a kon of 3.38e+06 M⁻¹ s⁻¹.

B13: H15L16 (antibody, human IgG1, kappa, V domains shown)
VH: QVQLVQSGAEVVKPGASVKLSCKASGYTFTSYWMHWVKQRPGQGLEWIGNINPSNGGTNYNEKFKSKATLTVDTSSSTAYMELSSLRSEDSAVYYCELGQGYWGQGTLVTVSS
VL: DIVMTQSPLSNPVTLGQPVSISCRSSKSLLYKDGKTYLNWFLQRPGQSPQLLIYLMSTRASGVPDRFSGGGSGTDFTLKISRVEAEDVGVYYCQQLVEYPLTFGQGTKLEIKR
notes: as for B1
B13 returned a koff in test [1] of 0.00604 s⁻¹.

B14: H6L14 (antibody, human IgG1, kappa)
heavy: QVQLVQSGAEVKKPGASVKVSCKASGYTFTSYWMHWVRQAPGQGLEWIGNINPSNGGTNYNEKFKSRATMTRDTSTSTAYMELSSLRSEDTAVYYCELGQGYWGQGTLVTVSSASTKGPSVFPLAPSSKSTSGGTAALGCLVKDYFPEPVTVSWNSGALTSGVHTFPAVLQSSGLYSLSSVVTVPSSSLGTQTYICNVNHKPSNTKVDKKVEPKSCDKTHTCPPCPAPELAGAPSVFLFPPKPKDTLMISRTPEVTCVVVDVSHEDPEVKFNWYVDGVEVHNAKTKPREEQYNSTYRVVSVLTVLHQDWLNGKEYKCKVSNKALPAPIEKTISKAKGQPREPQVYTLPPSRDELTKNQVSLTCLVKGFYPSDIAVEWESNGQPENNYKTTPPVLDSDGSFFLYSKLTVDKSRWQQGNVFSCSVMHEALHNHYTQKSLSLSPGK
light: DIVMTQSPLSLPVTLGQPASISCRSSKSLLYKDGKTYLNWFLQRPGQSPQLLIYLMSTRASGVPDRFSGGGSGTDFTLKISRVEAEDVGVYYCQQLVEYPLTFGQGTKLEIKRTVAAPSVFIFPPSDEQLKSGTASVVCLLNNFYPREAKVQWKVDNALQSGNSQESVTEQDSKDSTYSLSSTLTLSKADYEKHKVYACEVTHQGLSSPVTKSFNRGEC
notes: as for B1
For B14, in test [1], the koff was 0.0457 s⁻¹.

B15: H6L18 (antibody, human IgG1, kappa, V domains shown)
VH: QVQLVQSGAEVKKPGASVKVSCKASGYTFTSYWMHWVRQAPGQGLEWIGNINPSNGGTNYNEKFKSRATMTRDTSTSTAYMELSSLRSEDTAVYYCELGQGYWGQGTLVTVSS
VL: DIVMTQDPLSNPVTLGQPVSISCRSSKSLLYKDGKTYLNWFLQRPGQSPQLLIYLMSTRASGVSDRFSGSGSGTDFTLKISRVEAEDVGVYYCQQLVEYPLTFGQGTKLEIKR
notes: as for B1
Take B15: the koff in test [1] is 0.0106 s⁻¹.

B16: HcL11 (antibody, human IgG1, kappa)
heavy: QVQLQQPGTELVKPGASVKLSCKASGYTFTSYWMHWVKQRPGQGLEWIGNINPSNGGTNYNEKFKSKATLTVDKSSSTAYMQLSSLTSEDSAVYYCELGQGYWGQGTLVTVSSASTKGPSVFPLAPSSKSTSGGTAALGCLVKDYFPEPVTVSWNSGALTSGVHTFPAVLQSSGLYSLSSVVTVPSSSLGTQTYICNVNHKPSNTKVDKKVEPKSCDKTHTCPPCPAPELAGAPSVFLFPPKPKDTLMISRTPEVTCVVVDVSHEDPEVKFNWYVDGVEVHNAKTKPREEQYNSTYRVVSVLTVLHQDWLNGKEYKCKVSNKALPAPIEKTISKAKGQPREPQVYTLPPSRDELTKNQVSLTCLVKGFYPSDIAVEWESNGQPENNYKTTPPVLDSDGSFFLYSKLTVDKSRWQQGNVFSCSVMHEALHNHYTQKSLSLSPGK
light: DIVITQSPLSLPVTLGQPASISCRSSKSLLYKDGKTYLNWFQQRPGQSPQLLIYLMSTRASGVPDRFSGGGSGTDFTLKISRVEAEDVGVYYCQQLVEYPLTFGQGTKLEIKRTVAAPSVFIFPPSDEQLKSGTASVVCLLNNFYPREAKVQWKVDNALQSGNSQESVTEQDSKDSTYSLSSTLTLSKADYEKHKVYACEVTHQGLSSPVTKSFNRGEC
notes: Chimeric heavy chain Hc paired with humanised light chain L11
As for B16, in test [2], the Kd was determined as 3.55 nM, the koff turned out to be 0.0134 s⁻¹ and the kon came to 3.78e+06 M⁻¹ s⁻¹.
